Values belong to the binder of their own block, whether it stands above or below them.
Legend:
Assay in all cases: cell-based or functional assay
[1] = biological target: mismatched peptide #246 …
[2] = biological target: mismatched peptide #221 …
[3] = biological target: mismatched peptide #62 …
[4] = biological target: mismatched peptide #324 …
[5] = biological target: mismatched peptide #79 …
[6] = biological target: mismatched peptide #247 …
[7] = biological target: mismatched peptide #278 …
[8] = biological target: mismatched peptide #244 …
[9] = biological target: mismatched peptide #41 …
[10] = biological target: mismatched peptide #15 …
[11] = biological target: mismatched peptide #76 …
[12] = biological target: mismatched peptide #84 …
[13] = biological target: mismatched peptide #243 …
[14] = biological target: mismatched peptide #160 …
[15] = biological target: mismatched peptide #323 …
[16] = biological target: mismatched peptide #31 …
[17] = biological target: mismatched peptide #45 …
[18] = biological target: mismatched peptide #228 …
[19] = biological target: mismatched peptide #257 …
[20] = biological target: mismatched peptide #9 …
[21] = biological target: mismatched peptide #236 …
[22] = biological target: mismatched peptide #265 …
[23] = biological target: mismatched peptide #47 …
[24] = biological target: mismatched peptide #280 …
[25] = biological target: mismatched peptide #239 …
[26] = biological target: mismatched peptide #240 …
[27] = biological target: mismatched peptide #116 …

IFN-γ release (IFNg-ELISA), donor MIT 045 [1]: 0 pg/mL
IFN-γ release (IFNg-ELISA), donor MIT 045 [2]: 0 pg/mL
IFN-γ release (IFNg-ELISA), donor MIT 045 [3]: 0 pg/mL
IFN-γ release (IFNg-ELISA), donor MIT 045 [4]: 0 pg/mL
IFN-γ release (IFNg-ELISA), donor MIT 045 [5]: 0 pg/mL
IFN-γ release (IFNg-ELISA), donor MIT 045 [6]: 0 pg/mL
IFN-γ release (IFNg-ELISA), donor MIT 045 [7]: 0 pg/mL
IFN-γ release (IFNg-ELISA), donor MIT 045 [8]: 0 pg/mL
IFN-γ release (IFNg-ELISA), donor MIT 045 [9]: 0 pg/mL
IFN-γ release (IFNg-ELISA), donor MIT 045 [10]: 0 pg/mL
IFN-γ release (IFNg-ELISA), donor MIT 045 [11]: 0 pg/mL
IFN-γ release (IFNg-ELISA), donor MIT 045 [12]: 0 pg/mL
IFN-γ release (IFNg-ELISA), donor MIT 045 [13]: 0 pg/mL
IFN-γ release (IFNg-ELISA), donor MIT 045 [14]: 0 pg/mL
IFN-γ release (IFNg-ELISA), donor MIT 045 [15]: 0 pg/mL
IFN-γ release (IFNg-ELISA), donor MIT 045 [16]: 0 pg/mL
IFN-γ release (IFNg-ELISA), donor MIT 045 [17]: 0 pg/mL
IFN-γ release (IFNg-ELISA), donor MIT 045 [18]: 0 pg/mL
IFN-γ release (IFNg-ELISA), donor MIT 045 [19]: 0 pg/mL
B1: NY-ESO specific TCR (T11.8-10-17) with Uni-TABS epitope V1 at A245 in loop 2 of TRBC (TCR)
TCR alpha: QKEVEQNSGPLSVPEGAIASLNCTYSDRGSQSFFWYRQYSGKSPELIMFIYSNGDKEDGRFTAQLNKASQYVSLLIRDSQPSDSATYLCAADDKIIFGKGTRLHILPNIQNPDPAVYQLRDSKSSDKSVCLFTDFDSQTNVSQSKDSDVYITDKTVLDMRSMDFKSNSAVAWSNKSDFACANAFNNSIIPEDTFFPSSDVPCDVKLVEKSFETDTNLNFQNLSVIGFRILLLKVAGFNLLMTLRLWSS
TCR beta: DAGVIQSPRHEVTEMGQEVTLRCKPISGHDYLFWYRQTMMRGLELLIYFNNNVPIDDSGMPEDRFSAKMPNASFSTLKIQPSEPRDSAVYFCASSRGGSGYTFGSGTRLTVVEDLNKVFPPEVAVFEPSKAEIAHTQKATLVCLATGFFPDHVELSWWVNGKEVHSGVSTDPQPLKEQPALNDSRYCLSSRLRVSATFWQNPRNHFRCQVQFYGLSENDEWTQDRAGSGDKGEVPKDRFSAGSGKPVTQIVSAEAWGRADCGITSASYHQGVLSATILYEILLGKATLYAVLVSALVLMAMVKRKDF

IFN-γ release (IFNg-ELISA), donor MIT038 [20]: 258 pg/mL
IFN-γ release (IFNg-ELISA), donor MIT038 [21]: 476 pg/mL
IFN-γ release (IFNg-ELISA), donor MIT 045 [21]: 400 pg/mL
IFN-γ release (IFNg-ELISA), donor MIT038 [1]: 345 pg/mL
IFN-γ release (IFNg-ELISA), donor MIT038 [22]: 400 pg/mL
IFN-γ release (IFNg-ELISA), donor MIT 045 [23]: 530 pg/mL
IFN-γ release (IFNg-ELISA), donor MIT038 [2]: 900 pg/mL
IFN-γ release (IFNg-ELISA), donor MIT 045 [2]: 889 pg/mL
IFN-γ release (IFNg-ELISA), donor MIT038 [3]: 942 pg/mL
IFN-γ release (IFNg-ELISA), donor MIT 045 [3]: 918 pg/mL
IFN-γ release (IFNg-ELISA), donor MIT038 [4]: 757 pg/mL
IFN-γ release (IFNg-ELISA), donor MIT 045 [4]: 628 pg/mL
IFN-γ release (IFNg-ELISA), donor MIT038 [24]: 256 pg/mL
IFN-γ release (IFNg-ELISA), donor MIT038 [25]: 312 pg/mL
IFN-γ release (IFNg-ELISA), donor MIT038 [26]: 386 pg/mL
IFN-γ release (IFNg-ELISA), donor MIT038 [5]: 370 pg/mL
IFN-γ release (IFNg-ELISA), donor MIT038 [6]: 537 pg/mL
IFN-γ release (IFNg-ELISA), donor MIT 045 [6]: 372 pg/mL
IFN-γ release (IFNg-ELISA), donor MIT038 [7]: 442 pg/mL
IFN-γ release (IFNg-ELISA), donor MIT038 [8]: 387 pg/mL
IFN-γ release (IFNg-ELISA), donor MIT 045 [8]: 261 pg/mL
IFN-γ release (IFNg-ELISA), donor MIT038 [9]: 555 pg/mL
IFN-γ release (IFNg-ELISA), donor MIT 045 [9]: 680 pg/mL
IFN-γ release (IFNg-ELISA), donor MIT 045 [27]: 257 pg/mL
IFN-γ release (IFNg-ELISA), donor MIT038 [10]: 520 pg/mL
IFN-γ release (IFNg-ELISA), donor MIT 045 [10]: 306 pg/mL
IFN-γ release (IFNg-ELISA), donor MIT038 [11]: 825 pg/mL
IFN-γ release (IFNg-ELISA), donor MIT 045 [11]: 939 pg/mL
IFN-γ release (IFNg-ELISA), donor MIT038 [13]: 499 pg/mL
IFN-γ release (IFNg-ELISA), donor MIT 045 [13]: 356 pg/mL
IFN-γ release (IFNg-ELISA), donor MIT038 [14]: 2800 pg/mL
IFN-γ release (IFNg-ELISA), donor MIT 045 [14]: 2840 pg/mL
IFN-γ release (IFNg-ELISA), donor MIT038 [15]: 3170 pg/mL
IFN-γ release (IFNg-ELISA), donor MIT 045 [15]: 3000 pg/mL
IFN-γ release (IFNg-ELISA), donor MIT038 [16]: 2420 pg/mL
IFN-γ release (IFNg-ELISA), donor MIT 045 [16]: 1560 pg/mL
IFN-γ release (IFNg-ELISA), donor MIT038 [17]: 1410 pg/mL
IFN-γ release (IFNg-ELISA), donor MIT 045 [17]: 1520 pg/mL
IFN-γ release (IFNg-ELISA), donor MIT038 [18]: 484 pg/mL
IFN-γ release (IFNg-ELISA), donor MIT 045 [18]: 1200 pg/mL
IFN-γ release (IFNg-ELISA), donor MIT038 [19]: 407 pg/mL
B2: NY-ESO specific TCR (T11.8-10-17) with Uni-TABS epitope V1 at A199 in loop 1 of TRBC (TCR)
TCR alpha: QKEVEQNSGPLSVPEGAIASLNCTYSDRGSQSFFWYRQYSGKSPELIMFIYSNGDKEDGRFTAQLNKASQYVSLLIRDSQPSDSATYLCAADDKIIFGKGTRLHILPNIQNPDPAVYQLRDSKSSDKSVCLFTDFDSQTNVSQSKDSDVYITDKTVLDMRSMDFKSNSAVAWSNKSDFACANAFNNSIIPEDTFFPSSDVPCDVKLVEKSFETDTNLNFQNLSVIGFRILLLKVAGFNLLMTLRLWSS
TCR beta: DAGVIQSPRHEVTEMGQEVTLRCKPISGHDYLFWYRQTMMRGLELLIYFNNNVPIDDSGMPEDRFSAKMPNASFSTLKIQPSEPRDSAVYFCASSRGGSGYTFGSGTRLTVVEDLNKVFPPEVAVFEPSKAEIAHTQKATLVCLATGFFPDHVELSWWVNGKEVHSGVSTDPQPLKEQPAGSGDKGEVPKDRFSAGSGLNDSRYCLSSRLRVSATFWQNPRNHFRCQVQFYGLSENDEWTQDRAKPVTQIVSAEAWGRADCGITSASYHQGVLSATILYEILLGKATLYAVLVSALVLMAMVKRKDF

— patent publication EP4635976A1 (Medigene Immunotherapies GmbH, dated 2025)
